The target of series [1] is T1, BAMT (Antirrhinum majus, UniProt Q9FYZ9).
T1 construct: The enzyme activity was purified from upper and lower petal lobes of 5- to 10-day-old snapdragon flowers; from tissue; host or cells: upper and lower petal lobes of 5- to 10-day-old snapdragon flowers
T1 sequence (Q9FYZ9 1-364): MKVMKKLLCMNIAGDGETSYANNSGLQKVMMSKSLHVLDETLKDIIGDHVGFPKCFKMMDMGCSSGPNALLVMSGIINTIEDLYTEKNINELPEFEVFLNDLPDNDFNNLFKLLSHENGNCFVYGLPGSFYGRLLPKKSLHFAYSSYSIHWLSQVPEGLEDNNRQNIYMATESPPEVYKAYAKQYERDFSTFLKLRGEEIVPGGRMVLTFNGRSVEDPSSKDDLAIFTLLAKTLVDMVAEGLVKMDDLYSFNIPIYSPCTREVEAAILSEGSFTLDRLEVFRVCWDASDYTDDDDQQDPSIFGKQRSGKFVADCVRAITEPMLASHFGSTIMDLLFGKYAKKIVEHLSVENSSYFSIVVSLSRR
The experiment in a line: BAMT enzyme assay, substrate specificity of plant-purified BAMT (fraction after MonoQ). The class given is biochemical. Conditions: plant BAMT purified through MonoQ, compound tested as substrate instead of benzoic acid. An excerpt:
The raw data (counts per minute) were converted to picokatals (picomoles of product produced per second) based on the specific activity of the substrate and efficiency of counting. Controls included assays with boiled protein extracts and without substrate, and background radioactivity produced in such assays was subtracted from all of the results.
The enzyme activity was purified from upper and lower petal lobes of 5- to 10-day-old snapdragon flowers in a series of chromatographic steps involving a DEAE anion exchange column (DE53, Whatman International, Maidstone, England), phenyl Sepharose 6FF (low sub, level of phenyl substitution 20 μmole per ml gel) column (Pharmacia Biotech, Piscataway, N.J.), and another anion exchange column, MonoQ, on Pharmacia's fast-performance liquid chromatography system. A complete description of the purification protocol is described in Example 7.

The subject of series [2] is BAMT. Briefly: Effectors: BAMT enzyme assay with cations in assay buffer. It is filed as biochemical, Antirrhinum majus. Conditions: for Stimulation of BAMT activity (factor): cation at 5 mM in assay buffer.
Series [3] addresses T1, BAMT. The experiment in a line: Specific activity of BAMT purified from snapdragon petals. It is filed as biochemical. Conditions: from 25 g fresh petal material after Mono-Q. The procedure:
After the enzyme was loaded, the column was washed with 3 mL 300 mM KCl in buffer A and eluted with a linear reverse gradient (4 mL) from 300 mM KCl in buffer A to water followed by an additional 11 mL of water. Fractions of 0.7 ml were collected into tubes containing 100 μL 1 M KCl, 100 μL glycerol, 100 μL of 0.5 M Bis-Tris-HCl, pH 6.9 and 1 μL of 14 M β-mercaptoethanol. […] The column was previously equilibrate with 100 mM KCl in buffer A. After loading the protein onto the column, the column was washed with 100 mM KCl in buffer A and the bound protein was eluted using a 10 mL linear (100-400 mM) gradient of KCl in buffer A followed by an additional 5 mL of buffer A containing 400 mM KCl, at flow rate of 0.25 mL/min. The enzyme consistently eluted at about 360 mM KCl. Fractions (0.5 mL each) were collected and protein content and purity were examined by SDS-PAGE gel electrophoresis followed by staining of the gel with Coomassie Brilliant Blue. Fractions which had the largest amount of pure protein were used for N-terminal sequencing, internal peptide sequencing, and initial enzyme characterization.

Series [4] relates to BAMT.
Description: The optimum pH for BAMT activity was determined using two buffer systems. Reactions were carried out in 50 mM Tris-HCl buffer with pH ranging from 6.5 to 9.0 and in 50 mM Tris/Na phosphate/Na citrate buffer with pH ranging from 4.0 to 9.5. Final results are an average of four independent assays.
Series [5] relates to BAMT. The experiment in a line: Kinetic properties of purified plant and E. coli expressed BAMT proteins. It is filed as biochemical, Antirrhinum majus. The following applies: purified protein; for KmSAM: Table 4.
For a further series, the target named is T2, E. coli BAMT protein (Antirrhinum majus, UniProt Q9FYZ9).
T2 sequence (Q9FYZ9 1-364): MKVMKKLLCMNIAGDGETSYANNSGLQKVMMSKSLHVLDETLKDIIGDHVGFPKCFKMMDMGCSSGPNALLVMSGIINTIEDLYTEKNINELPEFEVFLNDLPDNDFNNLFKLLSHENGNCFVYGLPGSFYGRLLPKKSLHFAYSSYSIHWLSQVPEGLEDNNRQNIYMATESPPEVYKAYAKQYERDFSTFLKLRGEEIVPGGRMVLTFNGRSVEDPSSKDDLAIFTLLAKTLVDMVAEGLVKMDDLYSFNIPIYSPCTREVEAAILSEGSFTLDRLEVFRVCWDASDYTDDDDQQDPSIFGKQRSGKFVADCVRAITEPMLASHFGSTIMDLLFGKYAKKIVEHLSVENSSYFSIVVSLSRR
Briefly: Product inhibition kinetics of methylation reaction by SAH.

Series [6] addresses T1, BAMT. Briefly: BAMT activity with different substrates in lysates of E. coli expressing BAMT cDNA. The class given is biochemical. Conditions: lysates of E. coli cells expressing BAMT. An excerpt: The raw data (counts per minute) were converted to picokatals (picomoles of product produced per second) based on the specific activity of the substrate and efficiency of counting.
(Yamaguchi et al., 1996).

The target of a further series is T3, SAMT (Clarkia breweri, UniProt Q9SPV4).
T3 sequence (Q9SPV4 1-359): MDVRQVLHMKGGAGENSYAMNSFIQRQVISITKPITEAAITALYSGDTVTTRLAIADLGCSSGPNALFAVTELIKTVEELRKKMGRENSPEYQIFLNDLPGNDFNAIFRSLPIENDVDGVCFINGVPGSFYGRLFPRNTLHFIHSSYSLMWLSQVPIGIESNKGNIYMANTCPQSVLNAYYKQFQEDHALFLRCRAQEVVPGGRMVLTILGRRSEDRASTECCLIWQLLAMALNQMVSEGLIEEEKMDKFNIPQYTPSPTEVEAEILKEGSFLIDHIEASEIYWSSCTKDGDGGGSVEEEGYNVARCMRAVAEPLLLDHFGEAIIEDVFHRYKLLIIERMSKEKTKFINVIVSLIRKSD
The following applies: Ross et al., 1999, cited from earlier work.

Series [7] concerns the molecule itself. Briefly: gel filtration on Superdex 200-HR (100 kDa native) against SDS-PAGE (49 kDa subunit). In general terms: SEC sorts molecules by how far they enter the pores of the column.
The test system of series [8] is BAMT. The experiment in a line: Specific activity of plant BAMT expressed in E. coli BL21 (DE3) cells.
Description: The E. coli.-expressed BAMT protein was purified by nickel-based affinity chromatography (2.5 ml bed volume) according to the manufacturer's protocol (Novagen, Inc).
The subject of series [9] is BAMT. Conditions: read-out: Km of plant BAMT protein for benzoic acid; Murfitt, et al., 2000; cited from earlier work.
The mark [10] stands for this setting: read-out: KmBA (Km for benzoic acid).

Like-named read-outs stand apart in the source and are kept apart here.

Excerpt for E. coli BAMT protein: Linear regressions were fitted to the data in double-reciprocal plots. Replots of the data were used to determine the kinetic parameters.

As to `OCc1ccccc1` [benzyl alcohol], the “BAMT activity with compound as substrate” value on BAMT [1] is “no activity was detected”; on BAMT [1] (listed as benzylalcohol) it was “no activity”.
Take `[Mg+2]` [Mg^2+]: the “Effect on BAMT activity” value in the series on BAMT [2] (5 mM Mg2+ in the assay reaction) is listed as “not affected”.
For the molecule `O=C(O)/C=C/c1ccccc1O` [2-coumaric acid], the “BAMT activity with compound as substrate” value on BAMT [1] was “no activity was detected”.
Regarding `N` [NH4^+], in the series on BAMT [2], the “Stimulation of BAMT activity (factor)” value is listed as 2.
With `O=C(O)c1cccc(O)c1` [3-hydroxybenzoic acid], the “BAMT activity with compound as substrate” value on BAMT [1] was “no activity was detected”.
“S-adenosyl-L-methionine:benzoic acid carboxyl methyltransferase [BAMT]”: the “Specific activity of purified BAMT protein” value in the series with BAMT [3] was 327 pkat/mg protein. Moreover, in the series on BAMT [4] (at both pH 6.5 and 8.5), the “Percent of maximum activity” value was 65%. Further, the “Enzyme activity as percent of the optimal value” with BAMT [4] (at pH 5.5 and 9.5) was “about 50%”. For the same molecule, the Km – broadly, the concentration of substrate that gives half-maximal velocity – with BAMT [5] (read-out: Km for SAM) is 28 µM; with BAMT [5] (setting [10]), 1100 µM.
Regarding `O=C(O)c1ccc(O)cc1` [4-hydroxybenzoic acid], the “BAMT activity with compound as substrate” value on BAMT [1] is given as “no activity was detected”.
In the case of `Nc1ncnc2c1ncn2[C@@H]1O[C@H](CSCC[C@H](N)C(=O)O)[C@@H](O)[C@H]1O` [SAH, S-adenosyl-L- homocysteine], the inhibition constant Ki (in general, the dissociation constant of the complex between target and ligand, obtained from inhibition or displacement) on E. coli BAMT protein (Ki value of SAH for BA, noncompetitive with respect to BA, SAM fixed at 150 μM) was 14 µM; at E. coli BAMT protein (Ki value of SAH for SAM, competitive with respect to SAM, BA fixed at 4 mM) it was 7 µM.
For `O=C(O)c1ccccc1O` [salicylic acid], the results for the “BAMT activity with compound as substrate” value at BAMT [6] and at BAMT [1] were “no activity” and “no activity was detected”, respectively.
As for `O=C(O)/C=C/c1ccc(O)cc1` [4-coumaric acid], the “BAMT activity with compound as substrate” value at BAMT [1] is listed as “no activity was detected”.
As to `O=C(O)/C=C/c1cccc(O)c1` [3-coumaric acid], the “BAMT activity with compound as substrate” value on BAMT [1] is “no activity was detected”.
Take `O=C(O)/C=C/c1ccccc1` [trans-cinnamic acid]: the figures for the “BAMT activity with compound as substrate” value at BAMT [6] and at BAMT [1] were “no activity” and “no activity was detected”, respectively.
Take `[K+]` [K^+]: the “Stimulation of BAMT activity (factor)” value with BAMT [2] turned out to be 2.

B1: SAM:salicylic acid carboxyl methyl transferase (protein, listed as Clarkia breweri)
chain: MDVRQVLHMKGGAGENSYAMNSFIQRQVISITKPITEAAITALYSGDTVTTRLAIADLGCSSGPNALFAVTELIKTVEELRKKMGRENSPEYQIFLNDLPGNDFNAIFRSLPIENDVDGVCFINGVPGSFYGRLFPRNTLHFIHSSYSLMWLSQVPIGIESNKGNIYMANTCPQSVLNAYYKQFQEDHALFLRCRAQEVVPGGRMVLTILGRRSEDRASTECCLIWQLLAMALNQMVSEGLIEEEKMDKFNIPQYTPSPTEVEAEILKEGSFLIDHIEASEIYWSSCTKDGDGGGSVEEEGYNVARCMRAVAEPLLLDHFGEAIIEDVFHRYKLLIIERMSKEKTKFINVIVSLIRKSD
notes: salicylic acid carboxyl methyl transferase from C. breweri
For B1, the Km with SAMT (read-out: Km value for BA) was 190 µM; with SAMT (read-out: Km value for SA) it was 24 µM; with SAMT (read-out: Km value for SAM), 9 µM.

B2: S-adenosyl-L-methionine:benzoic acid carboxyl methyltransferase (BAMT) from snapdragon (Antirrhinum majus) petals (enzyme)
chain: MKVMKKLLCMNIAGDGETSYANNSGLQKVMMSKSLHVLDETLKDIIGDHVGFPKCFKMMDMGCSSGPNALLVMSGIINTIEDLYTEKNINELPEFEVFLNDLPDNDFNNLFKLLSHENGNCFVYGLPGSFYGRLLPKKSLHFAYSSYSIHWLSQVPEGLEDNNRQNIYMATESPPEVYKAYAKQYERDFSTFLKLRGEEIVPGGRMVLTFNGRSVEDPSSKDDLAIFTLLAKTLVDMVAEGLVKMDDLYSFNIPIYSPCTREVEAAILSEGSFTLDRLEVFRVCWDASDYTDDDDQQDPSIFGKQRSGKFVADCVRAITEPMLASHFGSTIMDLLFGKYAKKIVEHLSVENSSYFSIVVSLSRR
notes: Native protein from upper and lower petal lobes; The native enzyme is reported as a homodimer (100 kDa by gel filtration, 49 kDa on SDS-PAGE); In the immunoblots it was the denatured monomer after SDS-PAGE; also called BAMT protein; plant BAMT
In the case of B2, the binding result in series [7] is listed as “binds”.

B3: E. coli Met1: E. coli expressed snapdragon BAMT starting with the first methionine codon, N-terminal 6×His tag (protein, UniProt Q9FYZ9 1-364, looked up)
chain: MKVMKKLLCMNIAGDGETSYANNSGLQKVMMSKSLHVLDETLKDIIGDHVGFPKCFKMMDMGCSSGPNALLVMSGIINTIEDLYTEKNINELPEFEVFLNDLPDNDFNNLFKLLSHENGNCFVYGLPGSFYGRLLPKKSLHFAYSSYSIHWLSQVPEGLEDNNRQNIYMATESPPEVYKAYAKQYERDFSTFLKLRGEEIVPGGRMVLTFNGRSVEDPSSKDDLAIFTLLAKTLVDMVAEGLVKMDDLYSFNIPIYSPCTREVEAAILSEGSFTLDRLEVFRVCWDASDYTDDDDQQDPSIFGKQRSGKFVADCVRAITEPMLASHFGSTIMDLLFGKYAKKIVEHLSVENSSYFSIVVSLSRR
modifications: full-length N-terminal 6xHis tag
On to B3, for which, in the series on BAMT [5], the Vmax is reported as 300 pkat/mg, the “kcat (turnover number of enzyme)” value was 0.03 s⁻¹ and the KmSAM came out at 87 μm. For the same molecule, the Km in the series on BAMT [5] (read-out: Km for SAM) was 87 µM. Moreover, the Km with BAMT [5] (setting [10]) stood at 1500 µM. Besides, in the series with BAMT [8] (E. coli BL21 (DE3) after IPTG induction), the “Specific activity, crude lysates” value is listed as 9 pkat/mg protein. Further, the “Specific activity of purified recombinant enzyme” value in the series on BAMT [8] (purified from E. coli) is 135 pcat/mg protein. In addition, the “Specific activity, purified protein” value with BAMT [8] (purified from E. coli on nickel column) stood at 135 pkat/mg protein.

B4: Plant: BAMT protein purified from upper and lower petal lobes of snapdragon flowers (protein)
chain: MKVMKKLLCMNIAGDGETSYANNSGLQKVMMSKSLHVLDETLKDIIGDHVGFPKCFKMMDMGCSSGPNALLVMSGIINTIEDLYTEKNINELPEFEVFLNDLPDNDFNNLFKLLSHENGNCFVYGLPGSFYGRLLPKKSLHFAYSSYSIHWLSQVPEGLEDNNRQNIYMATESPPEVYKAYAKQYERDFSTFLKLRGEEIVPGGRMVLTFNGRSVEDPSSKDDLAIFTLLAKTLVDMVAEGLVKMDDLYSFNIPIYSPCTREVEAAILSEGSFTLDRLEVFRVCWDASDYTDDDDQQDPSIFGKQRSGKFVADCVRAITEPMLASHFGSTIMDLLFGKYAKKIVEHLSVENSSYFSIVVSLSRR
For the molecule B4, in the series with BAMT [5], the Vmax came to 220 pkat/mg, the “kcat (turnover number of enzyme)” value came out at 0.02 s⁻¹ and the KmSAM turned out to be 28 μm. In addition, the Km in the series on BAMT [5] (read-out: Km for SAM) is 28 µM. Besides, the Km with BAMT [5] (setting [10]) turned out to be 1100 µM. For the same molecule, the Km in the series with BAMT [9] was 1000 µM.

These data come from patent US6558922B1, “Methods and compositions for production of floral scent compounds” (Purdue Research Foundation, priority 1999, dated 2003).
